Test results: paper PMC5604497

Target: leucine zipper domain of the transcription factor GCN4 from Saccharomyces cerevisiae (fusions with T18 and T25) (Saccharomyces cerevisiae)
Experiment: two-hybrid; bacterial two-hybrid (BACTH), T18 and T25 fusions co-overexpressed in adenylate-cyclase-deficient E. coli BTH-101, LB pH 7, aerobic, OD600 ~0.6; ß-galactosidase activity (ONPG) in Miller units, three biological replicates; background with empty vectors about 400 MU

ß-galactosidase activity: 1200 MU
Substance: leucine zipper domain of the transcription factor GCN4 from Saccharomyces cerevisiae (fusions with T18 and T25) (domain or fragment)
